Data as given in patent US20250388666A1 (BRIGHAM AND WOMEN S HOSPITAL, published 2025).

T1: CEACAM1 (Sino Biological) (human, UniProt P13688 35-428, limits assumed)
T1 construct: may be the same as CEACAM1-HIS; also called hCEACAM1; biotinylated soluble CEACAM1
T1 sequence: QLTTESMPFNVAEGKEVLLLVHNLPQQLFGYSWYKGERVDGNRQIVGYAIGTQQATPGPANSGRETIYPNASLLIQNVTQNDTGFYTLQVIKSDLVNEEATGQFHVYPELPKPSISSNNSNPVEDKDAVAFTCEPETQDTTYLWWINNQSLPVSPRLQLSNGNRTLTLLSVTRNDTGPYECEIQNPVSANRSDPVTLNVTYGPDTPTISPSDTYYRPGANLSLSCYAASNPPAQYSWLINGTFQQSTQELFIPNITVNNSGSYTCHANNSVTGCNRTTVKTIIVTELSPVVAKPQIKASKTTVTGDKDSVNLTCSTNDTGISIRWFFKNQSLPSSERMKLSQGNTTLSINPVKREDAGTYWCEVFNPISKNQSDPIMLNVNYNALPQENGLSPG


Target: T1, CEACAM1 (Sino Biological)
Experiment: SPR single-cycle
Outline: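 Humanized affinity-matured IgGs from crude supernatants captured on Protein A to ~100 RU, with CEACAM1 analyte injected at 25–100 nM (three-point, two-fold) in HBS-P+ without regeneration. 200 s association per injection, 300 s single dissociation; reference-channel and blank subtracted.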

Row | Kd [nM] | fold better than Parent (KD) [fold] | Binder
1 | 89 | 1.79 | He6/L20 (antibody, IgG4, V domains shown, IgG4 S241P, kappa) VH: EVQLLESGGGLVQPGGSLRLSCAASGFSFSDYYLYWVRQAPGKGLEWVATISVGGGQTSYADSVKGRFTISRDNSKNTLYLQMNSLRAEDTAMYYCARARTYGPAWFAYWGQGTLVTVSS VL: DIVMTQSPDSLAVSLGERATINCKSSQSLLNSANQKNYLAWYQQKPGQPPKLLIYFASTRESGVPDRFSGSGSGTDFTLTISSLQAEDVAVYYCQSHFPYPLTFGGGTKVEIK
2 | 84 | 1.89 | He6/L5 (antibody, IgG4, V domains shown, IgG4 S241P, kappa) VH: EVQLLESGGGLVQPGGSLRLSCAASGFSFSDYYLYWVRQAPGKGLEWVATISVGGGQTSYADSVKGRFTISRDNSKNTLYLQMNSLRAEDTAMYYCARARTYGPAWFAYWGQGTLVTVSS VL: DIVMTQSPDSLAVSLGERATINCKSSQSLLNSANQKNYLAWYQQKPGQPPKLLIYFASTRESGVPDRFSGSGSGTDFTLTISSLQAEDVAVYYCQSHYPFAFTFGGGTKVEIK
3 | 125 | 1.27 | He6/Parent VL (antibody, IgG4, V domains shown, IgG4 S241P, kappa) VH: EVQLLESGGGLVQPGGSLRLSCAASGFSFSDYYLYWVRQAPGKGLEWVATISVGGGQTSYADSVKGRFTISRDNSKNTLYLQMNSLRAEDTAMYYCARARTYGPAWFAYWGQGTLVTVSS VL: not shown
4 | 83 | 1.92 | He6/L18 (antibody, IgG4, V domains shown, IgG4 S241P, kappa) VH: EVQLLESGGGLVQPGGSLRLSCAASGFSFSDYYLYWVRQAPGKGLEWVATISVGGGQTSYADSVKGRFTISRDNSKNTLYLQMNSLRAEDTAMYYCARARTYGPAWFAYWGQGTLVTVSS VL: DIVMTQSPDSLAVSLGERATINCKSSQSLLNSANQKNYLAWYQQKPGQPPKLLIYFASTRESGVPDRFSGSGSGTDFTLTISSLQAEDVAVYYCQSHFPYPFTFGGGTKVEIK
5 | 69 | 2.32 | He9/L1 (antibody, IgG4, V domains shown, IgG4 S241P, kappa) VH: EVQLLESGGGLVQPGGSLRLSCAASGFSFSDYYLYWVRQAPGKGLEWVATISVGGGQTSYADSVKGRFTISRDNSKNTLYLQMNSLRAEDTAMYYCARAMYYGPAWFAYWGQGTLVTVSS VL: DIVMTQSPDSLAVSLGERATINCKSSQSLLNSANQKNYLAWYQQKPGQPPKLLIYFASTRESGVPDRFSGSGSGTDFTLTISSLQAEDVAVYYCQSHYPFYYTFGGGTKVEIK
6 | 91 | 1.75 | He6/L17 (antibody, IgG4, V domains shown, IgG4 S241P, kappa) VH: EVQLLESGGGLVQPGGSLRLSCAASGFSFSDYYLYWVRQAPGKGLEWVATISVGGGQTSYADSVKGRFTISRDNSKNTLYLQMNSLRAEDTAMYYCARARTYGPAWFAYWGQGTLVTVSS VL: DIVMTQSPDSLAVSLGERATINCKSSQSLLNSANQKNYLAWYQQKPGQPPKLLIYFASTRESGVPDRFSGSGSGTDFTLTISSLQAEDVAVYYCQSHYPYPYTFGGGTKVEIK
7 | 66 | 2.41 | He6/L16 (antibody, IgG4, V domains shown, IgG4 S241P, kappa) VH: EVQLLESGGGLVQPGGSLRLSCAASGFSFSDYYLYWVRQAPGKGLEWVATISVGGGQTSYADSVKGRFTISRDNSKNTLYLQMNSLRAEDTAMYYCARARTYGPAWFAYWGQGTLVTVSS VL: DIVMTQSPDSLAVSLGERATINCKSSQSLLNSANQKNYLAWYQQKPGQPPKLLIYFASTRESGVPDRFSGSGSGTDFTLTISSLQAEDVAVYYCQSHYPYPFTFGGGTKVEIK
8 | 146 | 3.78 | He6/L4#2 (antibody, IgG4, V domains shown, IgG4 S241P, kappa) VH: EVQLLESGGGLVQPGGSLRLSCAASGFSFSDYYLYWVRQAPGKGLEWVATISVGGGQTSYADSVKGRFTISRDNSKNTLYLQMNSLRAEDTAMYYCARARTYGPAWFAYWGQGTLVTVSS VL: DIVMTQSPDSLAVSLGERATINCKSSQSLLNSANQKNYLAWYQQKPGQPPKLLIYFASTRESGVPDRFSGSGSGTDFTLTISSLQAEDVAVYYCQSHYPYPYTFGGGTKVEIK
9 | 237 | 0.67 | He6/L19 (antibody, IgG4, V domains shown, IgG4 S241P, kappa) VH: EVQLLESGGGLVQPGGSLRLSCAASGFSFSDYYLYWVRQAPGKGLEWVATISVGGGQTSYADSVKGRFTISRDNSKNTLYLQMNSLRAEDTAMYYCARARTYGPAWFAYWGQGTLVTVSS VL: DIVMTQSPDSLAVSLGERATINCKSSQSLLNSANQKNYLAWYQQKPGQPPKLLIYFASTRESGVPDRFSGSGSGTDFTLTISSLQAEDVAVYYCQSHIYPNFTFGGGTKVEIK
10 | 89 | 1.78 | He6/L6 (antibody, IgG4, V domains shown, IgG4 S241P, kappa) VH: EVQLLESGGGLVQPGGSLRLSCAASGFSFSDYYLYWVRQAPGKGLEWVATISVGGGQTSYADSVKGRFTISRDNSKNTLYLQMNSLRAEDTAMYYCARARTYGPAWFAYWGQGTLVTVSS VL: DIVMTQSPDSLAVSLGERATINCKSSQSLLNSANQKNYLAWYQQKPGQPPKLLIYFASTRESGVPDRFSGSGSGTDFTLTISSLQAEDVAVYYCQSHYPFSFTFGGGTKVEIK

The next lines start with the binder.

Row | Binder | Kd [nM] | fold better than Parent (KD) [fold]
11 | He4/L17 (antibody, IgG4, V domains shown, IgG4 S241P, kappa) VH: EVQLLESGGGLVQPGGSLRLSCAASGFSFSDYYLYWVRQAPGKGLEWVATISVGGGQTSYADSVKGRFTISRDNSKNTLYLQMNSLRAEDTAMYYCTRALYYGPAWFAYWGQGTLVTVSS VL: DIVMTQSPDSLAVSLGERATINCKSSQSLLNSANQKNYLAWYQQKPGQPPKLLIYFASTRESGVPDRFSGSGSGTDFTLTISSLQAEDVAVYYCQSHYPYPYTFGGGTKVEIK | 62 | 2.55
12 | He6/L1 (antibody, IgG4, V domains shown, IgG4 S241P, kappa) VH: EVQLLESGGGLVQPGGSLRLSCAASGFSFSDYYLYWVRQAPGKGLEWVATISVGGGQTSYADSVKGRFTISRDNSKNTLYLQMNSLRAEDTAMYYCARARTYGPAWFAYWGQGTLVTVSS VL: DIVMTQSPDSLAVSLGERATINCKSSQSLLNSANQKNYLAWYQQKPGQPPKLLIYFASTRESGVPDRFSGSGSGTDFTLTISSLQAEDVAVYYCQSHYPFYYTFGGGTKVEIK | 98 | 1.62
13 | He4/L18 (antibody, IgG4, V domains shown, IgG4 S241P, kappa) VH: EVQLLESGGGLVQPGGSLRLSCAASGFSFSDYYLYWVRQAPGKGLEWVATISVGGGQTSYADSVKGRFTISRDNSKNTLYLQMNSLRAEDTAMYYCTRALYYGPAWFAYWGQGTLVTVSS VL: DIVMTQSPDSLAVSLGERATINCKSSQSLLNSANQKNYLAWYQQKPGQPPKLLIYFASTRESGVPDRFSGSGSGTDFTLTISSLQAEDVAVYYCQSHFPYPFTFGGGTKVEIK | 55 | 2.89
14 | He6/L3 (antibody, IgG4, V domains shown, IgG4 S241P, kappa) VH: EVQLLESGGGLVQPGGSLRLSCAASGFSFSDYYLYWVRQAPGKGLEWVATISVGGGQTSYADSVKGRFTISRDNSKNTLYLQMNSLRAEDTAMYYCARARTYGPAWFAYWGQGTLVTVSS VL: DIVMTQSPDSLAVSLGERATINCKSSQSLLNSANQKNYLAWYQQKPGQPPKLLIYFASTRESGVPDRFSGSGSGTDFTLTISSLQAEDVAVYYCQSHFPFPFTFGGGTKVEIK | 94 | 1.69
15 | He4/L20 (antibody, IgG4, V domains shown, IgG4 S241P, kappa) VH: EVQLLESGGGLVQPGGSLRLSCAASGFSFSDYYLYWVRQAPGKGLEWVATISVGGGQTSYADSVKGRFTISRDNSKNTLYLQMNSLRAEDTAMYYCTRALYYGPAWFAYWGQGTLVTVSS VL: DIVMTQSPDSLAVSLGERATINCKSSQSLLNSANQKNYLAWYQQKPGQPPKLLIYFASTRESGVPDRFSGSGSGTDFTLTISSLQAEDVAVYYCQSHFPYPLTFGGGTKVEIK | 90 | 1.77
16 | He6/L4 #1 (antibody, IgG4, V domains shown, IgG4 S241P, kappa) VH: EVQLLESGGGLVQPGGSLRLSCAASGFSFSDYYLYWVRQAPGKGLEWVATISVGGGQTSYADSVKGRFTISRDNSKNTLYLQMNSLRAEDTAMYYCARARTYGPAWFAYWGQGTLVTVSS VL: DIVMTQSPDSLAVSLGERATINCKSSQSLLNSANQKNYLAWYQQKPGQPPKLLIYFASTRESGVPDRFSGSGSGTDFTLTISSLQAEDVAVYYCQSHFPYYYTFGGGTKVEIK | 155 | 1.03
17 | He4/L19 (antibody, IgG4, V domains shown, IgG4 S241P, kappa) VH: EVQLLESGGGLVQPGGSLRLSCAASGFSFSDYYLYWVRQAPGKGLEWVATISVGGGQTSYADSVKGRFTISRDNSKNTLYLQMNSLRAEDTAMYYCTRALYYGPAWFAYWGQGTLVTVSS VL: DIVMTQSPDSLAVSLGERATINCKSSQSLLNSANQKNYLAWYQQKPGQPPKLLIYFASTRESGVPDRFSGSGSGTDFTLTISSLQAEDVAVYYCQSHIYPNFTFGGGTKVEIK | 90 | 1.77
18 | He4/Parent VL (antibody, IgG4, V domains shown, IgG4 S241P, kappa) VH: EVQLLESGGGLVQPGGSLRLSCAASGFSFSDYYLYWVRQAPGKGLEWVATISVGGGQTSYADSVKGRFTISRDNSKNTLYLQMNSLRAEDTAMYYCTRALYYGPAWFAYWGQGTLVTVSS VL: not shown | 155 | 1.03
19 | He6/L2 (antibody, IgG4, V domains shown, IgG4 S241P, kappa) VH: EVQLLESGGGLVQPGGSLRLSCAASGFSFSDYYLYWVRQAPGKGLEWVATISVGGGQTSYADSVKGRFTISRDNSKNTLYLQMNSLRAEDTAMYYCARARTYGPAWFAYWGQGTLVTVSS VL: DIVMTQSPDSLAVSLGERATINCKSSQSLLNSANQKNYLAWYQQKPGQPPKLLIYFASTRESGVPDRFSGSGSGTDFTLTISSLQAEDVAVYYCQSHYPFPYTFGGGTKVEIK | 104 | 1.53
